Laboratory results taken from patent US20240141072A1 (published 2024).
Positions count from the first letter of the chain named.

Target: T1, biotinylated human DLL3 protein expressed as a human IgG1 fusion protein (human, UniProt Q9NYJ7 27-492, limits assumed, biotinylated)
T1 sequence: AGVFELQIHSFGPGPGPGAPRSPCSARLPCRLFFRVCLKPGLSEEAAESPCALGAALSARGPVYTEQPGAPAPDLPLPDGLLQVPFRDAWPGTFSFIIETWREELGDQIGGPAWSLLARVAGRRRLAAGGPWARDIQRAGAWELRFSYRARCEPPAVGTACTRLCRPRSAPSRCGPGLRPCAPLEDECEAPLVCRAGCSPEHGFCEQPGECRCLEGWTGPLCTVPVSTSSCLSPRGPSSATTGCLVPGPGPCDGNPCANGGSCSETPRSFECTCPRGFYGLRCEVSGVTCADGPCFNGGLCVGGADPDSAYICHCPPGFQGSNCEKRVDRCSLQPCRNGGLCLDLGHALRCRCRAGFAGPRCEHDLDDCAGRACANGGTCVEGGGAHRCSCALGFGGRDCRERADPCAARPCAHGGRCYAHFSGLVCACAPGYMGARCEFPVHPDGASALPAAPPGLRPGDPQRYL
Assay: Octet BLI, single 50 nM
Experimental: Using the conditioned medium with known concentrations of the anti-DLL3 trispecific proteins, the binding affinities of the anti-DLL3 trispecific proteins toward human DLL3 protein were measured using a method where biotinylated version of human DLL3 protein were expressed as a human IgG1 fusion protein, and the binding affinity measurement was carried out in an Octet instrument with streptavidin tips.

B1: 1C07 anti-DLL3 trispecific protein (other)
chain: EVQLVESGGGLVQPGGSLTLSCVASGSTSSINAMAWYRRAPGKQRELVAGISSDGSKVYADSVKGRFTISRDNAKNSVYLQMNSLRAEDTAVYYCYYFRTVSGSSMRYWGQGTLVTVSS
notes: not shown: linker 1808, anti-albumin sdAb, linker 1808, anti-CD3 fragment, His6 1819
  Kd: 7.1 nM

B2: 1A01 anti-DLL3 trispecific protein (other)
chain: B1 chain with S27F, A35G, K57F, T100H
notes: as for B1
  Kd: 7 nM

B3: 1A03 anti-DLL3 trispecific protein (other)
chain: B1 chain with M106S
notes: as for B1
  Kd: 6.3 nM

B4: 1A04 anti-DLL3 trispecific protein (other)
chain: B1 chain with A35G, A60E
notes: as for B1
  Kd: 7.8 nM

B5: 1A05 anti-DLL3 trispecific protein (other)
chain: B1 chain with T28P, A35G, V48S, S102R, R107S
notes: as for B1
  Kd: 4 nM

B6: 1A06 anti-DLL3 trispecific protein (other)
chain: B1 chain with A35G, V48A, K57S, M106K
notes: as for B1
  Kd: 5.6 nM

B7: 1A07 anti-DLL3 trispecific protein (other)
chain: B1 chain with T28I, A35G, T100M
notes: as for B1
  Kd: 8.6 nM

B8: 1A09 anti-DLL3 trispecific protein (other)
chain: B1 chain with V58L, S102Q
notes: as for B1
  Kd: 6.6 nM

B9: 1A010 anti-DLL3 trispecific protein (other)
chain: B1 chain with M34Y, A35G, S102Y
notes: as for B1
  Kd: 6.5 nM

B10: 1A012 anti-DLL3 trispecific protein (other)
chain: B1 chain with A60S, S102L
notes: as for B1
  Kd: 4.9 nM

B11: 1B01 anti-DLL3 trispecific protein (other)
chain: B1 chain with S30I, A35G, V48A, Y59I, T100R
notes: as for B1
  Kd: 5.2 nM

B12: 1B02 anti-DLL3 trispecific protein (other)
chain: B1 chain with A35G, V58I
notes: as for B1
  Kd: 11 nM

B13: 1B03 anti-DLL3 trispecific protein (other)
chain: B1 chain with S27K, A60T, M106A
notes: as for B1
  Kd: 8.7 nM

B14: 1B04 anti-DLL3 trispecific protein (other)
chain: B1 chain with S27T, A35G, K57L, T100I, S102R
notes: as for B1
  Kd: 11 nM

B15: 1B05 anti-DLL3 trispecific protein (other)
chain: B1 chain with F98Y
notes: as for B1
  Kd: 8 nM

B16: 1B07 anti-DLL3 trispecific protein (other)
chain: B1 chain with T28G, A35G, A60S, T100H
notes: as for B1
  Kd: 8.9 nM

B17: 1B08 anti-DLL3 trispecific protein (other)
chain: B1 chain with S27T, A35G, A60V, T100F
notes: as for B1
  Kd: 12 nM

B18: 1B09 anti-DLL3 trispecific protein (other)
chain: B1 chain with A60V
notes: as for B1
  Kd: 5.4 nM

B19: 1B010 anti-DLL3 trispecific protein (other)
chain: B1 chain with S30R, A35G, V101K
notes: as for B1
  Kd: 6.8 nM

B20: 1B011 anti-DLL3 trispecific protein (other)
chain: B1 chain with S30R, A35G, S102Y
notes: as for B1
  Kd: 5.7 nM

B21: 1C01 anti-DLL3 trispecific protein (other)
chain: B1 chain with A35G, A60R, R107G
notes: as for B1
  Kd: 4.3 nM

B22: 1C02 anti-DLL3 trispecific protein (other)
chain: B1 chain with A60S, Y108S
notes: as for B1
  Kd: 6.2 nM

B23: 1C04 anti-DLL3 trispecific protein (other)
chain: B1 chain with S27N
notes: as for B1
  Kd: 8.1 nM

B24: 1C05 anti-DLL3 trispecific protein (other)
chain: B1 chain with S105H
notes: as for B1
  Kd: 5.3 nM

B25: 1C06 anti-DLL3 trispecific protein (other)
chain: B1 chain with S30I, A35G, A60E, T100A
notes: as for B1
  Kd: 8.3 nM

B26: 1C08 anti-DLL3 trispecific protein (other)
chain: B1 chain with S30R, A35G, V48P, D61V, S105P
notes: as for B1
  Kd: 25 nM

B27: 1C010 anti-DLL3 trispecific protein (other)
chain: B1 chain with S30R, A35G, I51V, R107S
notes: as for B1
  Kd: 2.5 nM

B28: 1C011 anti-DLL3 trispecific protein (other)
chain: B1 chain with S27T, A35G, A60E
notes: as for B1
  Kd: 7.6 nM

B29: 1C012 anti-DLL3 trispecific protein (other)
chain: B1 chain with S27I, A35G, D61G, S102R
notes: as for B1
  Kd: 8.5 nM

B30: 1D01 anti-DLL3 trispecific protein (other)
chain: B1 chain with S30D, A35G, G55K, S102R
notes: as for B1
  Kd: 5.8 nM

B31: 1D02 anti-DLL3 trispecific protein (other)
chain: B1 chain with D54N, T100Q
notes: as for B1
  Kd: 14 nM

B32: 1D03 anti-DLL3 trispecific protein (other)
chain: B1 chain with M34I, A35G, Y59L, T100I, R107G
notes: as for B1
  Kd: 5.8 nM

B33: 1D04 anti-DLL3 trispecific protein (other)
chain: B1 chain with I31K, A35G, S104A
notes: as for B1
  Kd: 9.7 nM

B34: 1D06 anti-DLL3 trispecific protein (other)
chain: B1 chain with A35G, G55N, S102H
notes: as for B1
  Kd: 6.8 nM

B35: 1D08 anti-DLL3 trispecific protein (other)
chain: B1 chain with S27L, A35G, T100M
notes: as for B1
  Kd: 10 nM

B36: 1D09 anti-DLL3 trispecific protein (other)
chain: B1 chain with A60T, V101I
notes: as for B1
  Kd: 5.2 nM

B37: 1D010 anti-DLL3 trispecific protein (other)
chain: B1 chain with I31N, A60T, V101R
notes: as for B1
  Kd: 5 nM

B38: 1D011 anti-DLL3 trispecific protein (other)
chain: B1 chain with G55N, S104H
notes: as for B1
  Kd: 4.4 nM

B39: 1D012 anti-DLL3 trispecific protein (other)
chain: B1 chain with S30H, A35G, K57R, S104G
notes: as for B1
  Kd: 9.3 nM

B40: 1E02 anti-DLL3 trispecific protein (other)
chain: B1 chain with S27Q, A35G, K57Q, V101K
notes: as for B1
  Kd: 7 nM

B41: 1E04 anti-DLL3 trispecific protein (other)
chain: B1 chain with S30R, A33G, A35G, V48P, V58A, V101A, S104T
notes: as for B1
  Kd: 8.1 nM

B42: 1E05 anti-DLL3 trispecific protein (other)
chain: B1 chain with S30V, V48A, D61K, V63A, R99N
notes: as for B1
  Kd: 14 nM

B43: 1E07 anti-DLL3 trispecific protein (other)
chain: B1 chain with A60N, S102R, M106Q
notes: as for B1
  Kd: 7.1 nM

B44: 1E08 anti-DLL3 trispecific protein (other)
chain: B1 chain with S27K, A35G, Y59I, S102L
notes: as for B1
  Kd: 9.4 nM

B45: 1E09 anti-DLL3 trispecific protein (other)
chain: B1 chain with A60T, V101R
notes: as for B1
  Kd: 4.4 nM
